Data published in paper PMC12776367 (Journal of the American Society of Nephrology : JASN, 2025).
Blank lines part the entries; values can stand above or below the binder they belong to.

Columns and labels:
[1] = target: human vitronectin (2349-VN, R&D Systems) (human, UniProt P04004 20-478); test: BLI
[2] = target: T1, mouse vitronectin (ab92727, Abcam) (mouse, UniProt P29788 20-478); test: BLI
T1 sequence (looked up): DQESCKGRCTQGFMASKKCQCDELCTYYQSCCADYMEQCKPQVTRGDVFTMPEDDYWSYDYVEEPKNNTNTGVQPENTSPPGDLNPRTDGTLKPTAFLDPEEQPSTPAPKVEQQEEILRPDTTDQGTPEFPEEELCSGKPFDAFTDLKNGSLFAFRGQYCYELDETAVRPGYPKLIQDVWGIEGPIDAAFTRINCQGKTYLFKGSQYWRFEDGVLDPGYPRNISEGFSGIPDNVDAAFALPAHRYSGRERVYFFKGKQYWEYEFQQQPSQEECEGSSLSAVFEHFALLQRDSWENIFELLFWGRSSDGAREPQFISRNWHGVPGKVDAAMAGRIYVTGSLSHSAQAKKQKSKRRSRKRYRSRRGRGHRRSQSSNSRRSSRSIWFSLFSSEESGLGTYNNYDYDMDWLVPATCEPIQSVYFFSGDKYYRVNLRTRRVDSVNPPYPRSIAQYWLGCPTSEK

Sequence of human vitronectin (2349-VN, R&D Systems) (P04004 20-478): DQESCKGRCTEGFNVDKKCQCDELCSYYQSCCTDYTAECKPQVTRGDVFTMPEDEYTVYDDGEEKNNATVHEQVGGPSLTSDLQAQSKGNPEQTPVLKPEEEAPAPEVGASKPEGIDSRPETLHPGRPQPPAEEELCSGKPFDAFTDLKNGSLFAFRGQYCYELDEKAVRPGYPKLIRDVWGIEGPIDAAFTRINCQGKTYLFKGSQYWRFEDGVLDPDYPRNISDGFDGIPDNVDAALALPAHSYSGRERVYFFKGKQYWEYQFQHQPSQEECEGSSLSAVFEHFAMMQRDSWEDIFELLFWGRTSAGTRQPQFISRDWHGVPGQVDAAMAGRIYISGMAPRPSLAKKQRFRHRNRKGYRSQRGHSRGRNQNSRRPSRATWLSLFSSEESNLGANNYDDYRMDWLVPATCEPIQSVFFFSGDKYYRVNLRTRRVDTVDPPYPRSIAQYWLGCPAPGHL

- Kd [1]: 0.0374 ± 0.0006 µM
B1: His-tagged human testican-2 (2328-PI, R&D Systems) (natural protein, UniProt Q92563 23-424, looked up)
chain: EGDAKGLKEGETPGNFMEDEQWLSSISQYSGKIKHWNRFRDEVEDDYIKSWEDNQQGDEALDTTKDPCQKVKCSRHKVCIAQGYQRAMCISRKKLEHRIKQPTVKLHGNKDSICKPCHMAQLASVCGSDGHTYSSVCKLEQQACLSSKQLAVRCEGPCPCPTEQAATSTADGKPETCTGQDLADLGDRLRDWFQLLHENSKQNGSASSVAGPASGLDKSLGASCKDSIGWMFSKLDTSADLFLDQTELAAINLDKYEVCIRPFFNSCDTYKDGRVSTAEWCFCFWREKPPCLAELERIQIQEAAKKKPGIFIPSCDEDGYYRKMQCDQSSGDCWCVDQLGLELTGTRTHGSPDCDDIVGFSGDFGSGVGWEDEEEKETEEAGEEAEEEEGEAGEADDGGYIW

- Kd [1]: 0.349 ± 0.0124 µM
B2: deglycosylated human testican-2 (natural protein, UniProt Q92563 23-424, looked up)
chain: B1 chain
modifications: deglycosylated (Protein Deglycosylation Mix II kit)

- Kd [2]: 0.0637 ± 0.0023 µM
B3: His-tagged mouse testican-2 (MBS1458329, MyBioSource) (natural protein, UniProt Q9ER58 23-423, looked up)
chain: EGDAKGLKEGETPGNFMEDEQWLSSISQYSGKIKHWNRFRDEVEDDYIKSWEDNQQGDEALDTTKDPCQKVKCSRHKVCVAQGYQRAMCISRKKLEHRIKQPSLKLHGGKDSVCKPCHMAQLASVCGSDGHTYSSVCKLEQQACLSSKQLAVRCEGPCPCPTEQSTASTTDSKSETCTGQDLADLGDRLRDWFQLLRENSKQNGSANSATNPAGLDKSLGASCKDSIGWMFSKLDTSGDLFLDQTELAAINLDKYEVCIRPFFNSCDTYKDGRVSTAEWCFCFWREKPPCLAELERTQIQEAAKKKPGVFIPSCDEDGYYRKMQCDQSRGDCWCVDQLGLELTGTRMHGTPDCDDIVGFSGDFGSGVGWEDEEEKETEEAGEEAEEEEGEAGEADDGGYIW
